How the values were obtained:
[1] = target: T1, DDX21ΔN monomer (human, UniProt Q9NR30 186-783, L611R;A612R;A613R;A614R;L615R;A616R); assay: fluorescence polarization; 50 mM KCl; FP: 50 mM Tris pH 7.5, 50 mM KCl, 5 mM MgCl2, no ATP; Hill-slope fit; temperature not given in the material; conditions: protein: recombinant; label: 5'-FAM; G4
T1 sequence: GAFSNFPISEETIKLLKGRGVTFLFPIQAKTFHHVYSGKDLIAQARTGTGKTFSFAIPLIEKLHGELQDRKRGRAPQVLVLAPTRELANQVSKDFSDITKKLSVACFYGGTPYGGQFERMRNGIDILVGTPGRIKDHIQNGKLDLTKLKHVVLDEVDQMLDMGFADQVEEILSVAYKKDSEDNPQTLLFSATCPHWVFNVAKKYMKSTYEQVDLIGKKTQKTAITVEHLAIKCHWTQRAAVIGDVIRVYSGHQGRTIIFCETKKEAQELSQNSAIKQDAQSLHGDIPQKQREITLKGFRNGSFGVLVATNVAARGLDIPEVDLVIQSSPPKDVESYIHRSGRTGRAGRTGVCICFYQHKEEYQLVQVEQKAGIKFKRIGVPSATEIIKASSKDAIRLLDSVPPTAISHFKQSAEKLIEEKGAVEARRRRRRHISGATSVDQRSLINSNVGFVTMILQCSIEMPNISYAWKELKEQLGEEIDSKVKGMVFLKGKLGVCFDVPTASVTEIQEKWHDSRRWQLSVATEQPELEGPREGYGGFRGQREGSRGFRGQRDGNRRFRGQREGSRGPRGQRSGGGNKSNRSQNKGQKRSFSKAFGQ

[2] = target: T2, DDX21Core-DD (human, UniProt Q9NR30 186-620); assay: as above; conditions: protein: recombinant; tags: C-terminal His6, uncleavable; chain copies: 2; label: 5'-FAM; G4
T2 sequence: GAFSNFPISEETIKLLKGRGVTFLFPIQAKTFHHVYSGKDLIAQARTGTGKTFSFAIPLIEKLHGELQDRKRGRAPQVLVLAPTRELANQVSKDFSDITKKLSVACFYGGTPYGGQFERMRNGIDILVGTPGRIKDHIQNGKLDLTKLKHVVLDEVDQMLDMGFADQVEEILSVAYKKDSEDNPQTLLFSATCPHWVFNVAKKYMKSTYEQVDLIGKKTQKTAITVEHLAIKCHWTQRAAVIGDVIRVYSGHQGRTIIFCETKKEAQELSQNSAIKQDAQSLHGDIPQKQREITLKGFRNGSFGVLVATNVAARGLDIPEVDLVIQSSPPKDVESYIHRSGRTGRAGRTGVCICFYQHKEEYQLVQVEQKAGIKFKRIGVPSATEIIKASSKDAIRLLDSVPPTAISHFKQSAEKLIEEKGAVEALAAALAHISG

B1: Q2 RNA G-quadruplex (structured_RNA)
RNA: GUUGGGGCGGGCGUUGGGUUUGGGGGGACG
- Kd [1]: 2.9 ± 0.3 nM
- Kd [2]: 23.1 ± 3.2 nM
